Assay results: patent US8802386B2, “Diagnostic test for determining the concentration of transient proteolytic activity in composite biological media” (Synapse B.V., priority 2002, dated 2014)

Tested on: thrombin generation in platelet-rich plasma of a healthy donor
Assay: Thrombin generation curve (Thrombogram) in platelet-rich plasma, fluorogenic substrate
Type: cell-based, Human
Conditions: platelet-rich plasma of a healthy donor treated with the inhibitor vs the same plasma untreated; FIG. 9
Procedure: FIG. 9 is an example of an experiment in which platelet-rich plasma of a healthy donor is measured as well as the same plasma treated with a known platelet-activation inhibitor (ReoPro®). The two curves are different in shape, which is obvious from a longer TTP and lower peak height, but the area under the curve of both curves are within 3%, identical. This effect on peak height and TTP in the absence of a clear effect on the ETP is also seen for many mild coagulation factor deficiencies such as von Willebrand disease, deficiencies in factor VII or factor V and in factor VIII or IX deficiencies (haemophiliae). In many instances the Peak height and TTP have proven to be much more sensitive parameters of the thrombin generation curve than the ETP alone.
Firstly, an experiment is described in which thrombin generation in a sample of platelet rich plasma is measured. Solutions used: Human platelet rich plasma, obtained as in Beguin, S., T. Lindhout, and H. C. Hemker. The effect of trace amounts of tissue factor on thrombin generation in platelet rich plasma, its inhibition by heparin. Thromb Haemost, 1989. 61(1): p-25-9. Buffer A: 20 mM Hepes 140 mM NaCl, 5 g/l bovine serum albumin (BSA), pH 7.35; Buffer C: 20 mM Hepes, 140 mM NaCl, with BSA 60 mg/mL, pH 7.35 with 0.02% sodium azide as a preservative.
FluCa solution: To 1750 μL of buffer C are added 200 μL of 1 M CaCl2. The mixture is warmed to 37° C. Then 50 μL of 100 mmoles/liter of the substrate solution in DMSO is squirted in and the tube is immediately vortexed to obtain a perfectly clear solution that is 2.5 mM in substrate. 100 mM in CaCl2, 2.5% in DMSO. […]
The disturbing effects a and b are corrected by continuous on line comparison of the first derivative of the signal from the thrombin generated in the sample (O=f(t)) and the first derivative of the signal produced in the other sample by the calibrator (S=f(t)). […] A and B are continuously calculated during the experiment from the best fitting straight line through S=f(t). […]

B1: ReoPro: a known platelet-activation inhibitor (antibody, chains of the INN, looked up, V domains shown)
VH: EVQLQQSGTVLARPGASVKMSCEASGYTFTNYWMHWVKQRPGQGLEWIGAIYPGNSDTSYIQKFKGKAKLTAVTSTTSVYMELSSLTNEDSAVYYCTLYDGYYVFAYWGQGTLVTVSA
VL: EIVLTQSPVTLSVTPGDSVSLSCRASRDISNNLHWFQQTSHESPRLLIKYASQSMSGIPSRFSGSGSGTDFTLSINSVETEDFGMYFCQQTNSWPYTFGGGTKLEIK
modifications: Fab
TTP (time to peak) of thrombin generation curve: longer
difference in area under the curve (ETP) between treated and untreated plasma: ≤ 3%
peak height of thrombin generation curve: lower
